According to paper PMC4570711:

target: human TrkA receptor (human) (UniProt P04629)
Chain of UniProt P04629 (P04629 33-796): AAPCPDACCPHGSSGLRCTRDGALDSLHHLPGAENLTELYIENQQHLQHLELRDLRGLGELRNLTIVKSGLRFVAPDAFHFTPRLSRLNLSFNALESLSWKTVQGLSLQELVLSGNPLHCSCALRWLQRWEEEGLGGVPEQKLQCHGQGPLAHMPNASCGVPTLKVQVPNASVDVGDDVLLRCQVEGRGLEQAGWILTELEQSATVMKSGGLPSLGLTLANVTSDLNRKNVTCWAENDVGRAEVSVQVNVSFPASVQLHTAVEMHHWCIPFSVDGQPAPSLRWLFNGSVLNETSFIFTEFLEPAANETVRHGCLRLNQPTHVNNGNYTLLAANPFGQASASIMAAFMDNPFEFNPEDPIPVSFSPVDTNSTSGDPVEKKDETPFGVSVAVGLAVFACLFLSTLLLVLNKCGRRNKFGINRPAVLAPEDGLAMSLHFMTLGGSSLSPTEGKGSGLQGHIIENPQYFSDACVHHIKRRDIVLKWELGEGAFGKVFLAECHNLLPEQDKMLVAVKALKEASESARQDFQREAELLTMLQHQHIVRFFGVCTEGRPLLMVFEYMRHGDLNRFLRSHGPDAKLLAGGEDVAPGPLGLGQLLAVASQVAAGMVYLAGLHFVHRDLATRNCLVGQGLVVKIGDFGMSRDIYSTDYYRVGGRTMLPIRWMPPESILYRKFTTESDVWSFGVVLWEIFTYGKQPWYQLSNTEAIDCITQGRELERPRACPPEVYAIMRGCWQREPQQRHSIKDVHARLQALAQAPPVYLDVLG

| Substance | TF1 cell proliferation, C50 (concentration of hNGF giving half of the maximum effect; 0.1–200 ng/ml) |
| --- | --- |
| human Nerve Growth Factor P61S R100E double mutant (ligand) | 8.1 ng/mL |
| human Nerve Growth Factor P61S mutant (ligand) | 4.3 ng/mL |
| human Nerve Growth Factor R100E mutant ("painless" hNGF) (from UniProt P01138 122-241) (ligand) | 10.9 ng/mL |
